Experiment [1] addresses T1, TBD-1 wt.
T1 construct: Fab; the heavy chain entry is VH-CH1; also called wild-type anti-TROP2 Fab (hRS7); TROP2 Fab
Kind of experiment: competition ELISA: peptide titrated and pre-incubated with a constant concentration of TBD-1, then added to plate-bound biotinylated TROP2; blocked ligand TROP2 (2.m7). (In general: An ELISA detects its analyte on a solid surface through an enzyme-linked reagent.)

In experiment [2] the target is T2, TCE-1 (anti-CD3 scFv wt; anti-TROP2 Fab wt).
T2 construct: anti-CD3 scFv fused to the N-terminus of the anti-TROP2 Fab heavy chain; also called TCE-1 (wt)
Nature of the experiment: competition ELISA: peptide titrated and pre-incubated with a constant concentration of TCE-1, binding of TCE-1 to plate-bound biotinylated CD3 detected.

The target of experiment [3] is T3, TCE-22 (anti-CD3 scFv W112A; anti-TROP2 wt).
T3 construct: scFv on the Fab heavy chain; also called TCE-22 (W112A)
Nature of the experiment: competition ELISA, TCE on captured CD3.

Experiment [4] addresses T4, TCE-26 (anti-CD3 scFv W233A; anti-TROP2 HC wt).
T4 construct: scFv on the Fab heavy chain; also called TCE-26 (W233A)
Kind of experiment: competition ELISA, TCE on captured CD3.

Experiment [5] has as its target T5, TCE-31 (anti-CD3 scFv W238A; anti-TROP2 wt).
T5 construct: scFv on the Fab heavy chain; also called TCE-31 (W238A)
Nature of the experiment: competition ELISA, TCE on captured CD3.

Experiment [6] deals with T6, TCE-33 (anti-CD3 scFv F240A; anti-TROP2 wt).
T6 construct: scFv on the Fab heavy chain; also called TCE-33 (F240A)
Kind of experiment: competition ELISA, TCE on captured CD3.

The target of experiment [7] is T7, TCE-11 (anti-CD3 scFv H101A; anti-TROP2 wt).
T7 construct: scFv on the Fab heavy chain; also called TCE-11 (H101A)
Kind of experiment: competition ELISA, TCE on captured CD3.

The target in experiment [8] is T8, TCE-10 (anti-CD3 scFv R100A; anti-TROP2 wt).
T8 construct: scFv on the Fab heavy chain; also called TCE-10 (R100A)
Nature of the experiment: competition ELISA, TCE on captured CD3.

Experiment [9] deals with T9, TCE-13 (anti-CD3 scFv N103A; anti-TROP2 wt).
T9 construct: scFv on the Fab heavy chain; also called TCE-13 (N103A)
Kind of experiment: competition ELISA, TCE on captured CD3.

Experiment [10] concerns the target T10, TCE-20 (anti-CD3 scFv S110A; anti-TROP2 wt).
T10 construct: scFv on the Fab heavy chain; also called TCE-20 (S110A)
Kind of experiment: competition ELISA, TCE on captured CD3.

In experiment [11] the target is T11, Human TROP2 ECD (31-274 AA), biotinylated (human, UniProt P09758 31-274, biotinylated (site not stated)).
T11 construct: also called tumor-associated calcium signal transducer 2; Human TROP2-biotin
T11 sequence: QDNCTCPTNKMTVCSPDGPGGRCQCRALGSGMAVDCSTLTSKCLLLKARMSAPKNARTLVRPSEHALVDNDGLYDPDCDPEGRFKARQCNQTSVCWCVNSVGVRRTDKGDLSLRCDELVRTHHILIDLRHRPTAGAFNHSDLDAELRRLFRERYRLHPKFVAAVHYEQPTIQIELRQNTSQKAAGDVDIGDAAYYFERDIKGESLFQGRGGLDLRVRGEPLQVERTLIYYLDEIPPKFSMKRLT
Nature of the experiment: ELISA on immobilized TROP2.

Experiment [12] has as its target T11, Human TROP2 ECD (31-274 AA), …. Kind of experiment: ELISA on immobilized TROP2. The source holds these as a separate data set.
The target of experiment [13] is T12, TCE-14 (anti-CD3 scFv F104A; anti-TROP2 wt).
T12 construct: scFv on the Fab heavy chain; also called TCE-14 (F104A)
Nature of the experiment: competition ELISA, TCE on captured CD3.

Experiment [14] concerns the target T13, Peptide-77 (cysteine pairing not given here; also: biotinylated, site not given here).
T13 construct: mask peptide for the CD3 scFv
T13 peptide: YLCGPDTDETLACY
Kind of experiment: ELISA, TCE on captured biotin-peptide.

For experiment [15], the target named is T14, Peptide-76 (cysteine pairing not given here; also: biotinylated, site not given here).
T14 construct: mask peptide for the CD3 scFv
T14 peptide: YLCGPDADETLACY
Kind of experiment: ELISA, TCE on captured biotin-peptide.

Experiment [16] addresses T15, Peptide-70 (cysteine pairing not given here; also: biotinylated, site not given here).
T15 construct: mask peptide for the CD3 scFv
T15 peptide: YLCGPDGDETLACY
Kind of experiment: ELISA, TCE on captured biotin-peptide.

Substitutions are numbered along the chain they refer to. Names and notes keep the numbering of the source. Like-named read-outs stand apart in the source and are kept apart here. Where no end group is shown, it is not given here.

One may read the IC50 as the concentration that inhibits the measured activity by half. High values mean lower potency, low ones higher potency. As usually defined, the EC50 is the midpoint of the concentration-response curve. Low values mean greater potency, high ones weaker potency.

For the molecule IDFCLLYDWPVCAS [Peptide-16], the “IC50 (read off the curve)” value in [1] is around 3 µM.
Turning to VDCGPDGDESILCY (cysteine pairing not given here; also: biotinylated, site not given here, mask peptide for the CD3 scFv) [Peptide-71], the binding result in experiment [2] is listed as “binds”. The IC50 in [3] is 13.8 µM; in experiment [4], 75.4 µM; in [5], 51 µM; in [6] it was 4.83 µM; in [7], 3.72 µM; in experiment [8], 1.35 µM. Besides, the IC50 in [9] was found to be 5.08 µM; in experiment [10], 11.8 µM.
With VDFCTIYKWPVCEG [Peptide-22], the binding result in experiment [1] is “binds”.

B1: PC-6 (bispecific antibody)
light: GGVDFCGLYHWPICYQGGGGSGGLSGRSDAGSPLGLAGSGGSDIQLTQSPSSLSASVGDRVSITCKASQDVSIAVAWYQQKPGKAPKLLIYSASYRYTGVPDRFSGSGSGTDFTLTISSLQPEDFAVYYCQQHYITPLTFGAGTKVEIKRTVAAPSVFIFPPSDEQLKSGTASVVCLLNNFYPREAKVQWKVDNALQSGNSQESVTEQDSKDSTYSLSSTLTLSKADYEKHKVYACEVTHQGLSSPVTKSFNRGEC
heavy: not shown
notes: anti-TROP2 wt
As for B1, the results for the EC50 in [11] and in [12] were 0.0329 µM and 0.0166 µM, respectively.

B2: PC-5 (bispecific antibody)
light: B1 light with V3I, G7M, H10N, Y15A, Q16G
heavy: not shown
notes: anti-TROP2 wt
As to B2, the values for the EC50 in [11] and in experiment [12] were 0.0245 µM and 0.00915 µM, respectively.
Take DWCWYSPDNDGLCD (cysteine pairing not given here; also: biotinylated, site not given here, mask peptide for the CD3 scFv) [Peptide-68]: the binding result in experiment [2] is “binds”. Further, the IC50 in experiment [4] is 43 µM; in experiment [5], 9.47 µM; in experiment [6], 7.35 µM; in [13], 1.08 µM; in experiment [8] it was 88.9 µM; in experiment [10], 0.4 µM.

B3: TCE-37 (anti-CD3 scFv F104A; anti-TROP2 F108A) (bispecific antibody)
light: DIQLTQSPSSLSASVGDRVSITCKASQDVSIAVAWYQQKPGKAPKLLIYSASYRYTGVPDRFSGSGSGTDFTLTISSLQPEDFAVYYCQQHYITPLTFGAGTKVEIKRTVAAPSVFIFPPSDEQLKSGTASVVCLLNNFYPREAKVQWKVDNALQSGNSQESVTEQDSKDSTYSLSSTLTLSKADYEKHKVYACEVTHQGLSSPVTKSFNRGEC
heavy: not shown
notes: scFv on the Fab heavy chain
Turning to B3, the EC50 was determined as 0.00921 µM in [14], 0.00144 µM in experiment [15] and 0.00034 µM in experiment [16].

B4: TCE-7 (anti-CD3 scFv wt; anti-TROP2 F108A) (bispecific antibody)
light: B3 light
heavy: not shown
notes: scFv on the Fab heavy chain
Regarding B4, the values for the EC50 in experiment [14], in [15] and in [16] were 0.0632 µM, 0.00456 µM and 0.0004 µM, respectively.
In the case of IDFCSLYQWPVCGT [Peptide-21], the binding result in experiment [1] is “binds”.
Regarding SECLVDLQSDPCYW (cysteine pairing not given here; also: biotinylated, site not given here, mask peptide for the CD3 scFv) [Peptide-69], the binding result in [2] is listed as “binds”. Moreover, the IC50 in experiment [3] was determined as 56.8 µM; in experiment [4], 2.02 µM; in [5], 6.57 µM; in experiment [6], 0.81 µM; in experiment [13] it was 11.8 µM; in [9], 50.5 µM. The IC50 in [10] amounted to 4.24 µM.
QGCGTIADPEPHCW (cysteine pairing not given here; also: biotinylated, site not given here, mask peptide for the CD3 scFv) [Peptide-65]: in [2], the “IC50 (read off the curve)” value was around 2 µM. In addition, the 50% inhibitory concentration (IC50) in experiment [4] was determined as 2.64 µM; in experiment [5], 17.7 µM; in experiment [6], 0.62 µM; in experiment [7], 85 µM; in experiment [13], 6.46 µM; in experiment [10] it was 6.54 µM.
For the molecule VDFCYQYGWPICSR [Peptide-23], in experiment [1], the binding result is on record as “binds”.
For PDFCQLYNWPVCAG [Peptide-19], the binding result in [1] was “binds”.

The values are drawn from patent US20230357429A1 (JANUX THERAPEUTICS, published 2023).
